The record followed here is patent US20240392024A1 (SHANGHAI CELGEN BIO PHARMACEUTICAL, published 2024).

Several values for one entry are separate records, joined by “and”; a condition that tells them apart may be missing. Equal values may be shown once.

Assay [1] deals with T1, TNFR2-His (Sino Biological, 10417-H08H, NP_001057.1 Met1-Asp257, with multi-histidine tag expressed on … (human, UniProt P20333 23-257)).
T1 construct: range 1-257; Bought protein; also called recombinant human TNFR2 protein; TNFR2-His antigen; not shown: C-terminal multi-histidine tag
T1 sequence (looked up): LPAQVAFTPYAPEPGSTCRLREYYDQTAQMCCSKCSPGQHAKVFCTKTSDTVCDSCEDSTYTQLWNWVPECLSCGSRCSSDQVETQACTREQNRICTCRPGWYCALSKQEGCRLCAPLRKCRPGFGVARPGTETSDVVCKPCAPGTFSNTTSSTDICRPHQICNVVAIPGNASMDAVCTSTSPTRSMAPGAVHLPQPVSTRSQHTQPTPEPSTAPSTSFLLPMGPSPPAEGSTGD
Kind of assay: ELISA, plate coated with TNFR2-His (second test). Put shortly: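 EC50 values come from antibody dilution series tested by ELISA. Plates were coated with recombinant human TNFR2 bearing a C-terminal His tag and blocked before the serially diluted antibodies were added. Binding was detected with an enzyme-labelled anti-IgG secondary antibody, TMB development and a microplate reader.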
On the technique in general: An ELISA detects its analyte on a solid surface through an enzyme-linked reagent.

Assay [2] concerns the target T1, TNFR2-His (Sino Biological, 10417-H08H, …). The assay is described as follows: BLI, antibody captured on AHC probe, TNFR2 in solution. Put shortly: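 Bio-layer interferometry on an Octet in Basic Kinetics mode. Antibodies at 50 nM in Q buffer (10 mM PBS pH 7.4, 0.02% Tween 20, 0.2% BSA) were held on antibody-capture sensors. The sensors were then placed in recombinant human TNFR2 diluted 2-fold in Q buffer from a top concentration of 100 nM. Kon, koff and Kd come from these kinetic association measurements.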

Assay [3] concerns the target T2, human TNFR2 on the cell membrane (human, UniProt P20333 23-461).
T2 construct: whole, on cells; One molecule for all cell formats; also called TNFR2-CHO cells; CHO-TNFR2
T2 sequence (looked up): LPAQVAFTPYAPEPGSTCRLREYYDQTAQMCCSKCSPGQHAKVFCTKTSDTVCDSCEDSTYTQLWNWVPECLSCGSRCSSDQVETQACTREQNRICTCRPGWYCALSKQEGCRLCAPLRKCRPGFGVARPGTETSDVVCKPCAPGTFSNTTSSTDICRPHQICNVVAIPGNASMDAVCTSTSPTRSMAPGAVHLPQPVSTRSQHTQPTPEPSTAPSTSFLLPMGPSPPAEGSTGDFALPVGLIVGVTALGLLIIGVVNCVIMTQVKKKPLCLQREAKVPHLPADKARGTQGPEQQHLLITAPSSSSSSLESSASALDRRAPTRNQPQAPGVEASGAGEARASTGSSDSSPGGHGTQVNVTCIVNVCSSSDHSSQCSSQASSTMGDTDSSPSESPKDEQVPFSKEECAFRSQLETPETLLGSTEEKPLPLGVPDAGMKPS
The assay is described as follows: flow cytometry on CHO-TNFR2 cells. Put shortly:
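CHO cells were transfected with a pcDNA3.4 vector carrying human TNFR2, taken through drug selection and sorted as single clones to give a line that stably overexpresses the receptor. These cells were placed in 96-deep-well plates, incubated with serially diluted antibodies, washed and then stained with a fluorescent anti-IgG secondary antibody. Flow cytometry was run on a Beckman CytoFLEX, and EC50 values were derived from the dilution series.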
In general terms: A flow cytometer gives signals particle by particle.

B1: 12E12-huVH6 + huVL2(P08937) (antibody, V domains shown)
VH: QVQLVQSGAEVKKPGASVKVSCKASGYTITDFYIHWVRQAPGQGLEWIGRVDPEDGNTEYAPNFQDRATMTTDTSTSTAYLELSSLRSEDTAVYYCSTWDGFSYFDYWGQGTTVTVSS
VL: QAVVTQEPSLTVSPGGTVTLTCRSSTGPVTTNNYANWVQQKPGQAFRGLIGGTNDRAPGVPARFSGSLLGGKAALTLSGAQPEDEAEYYCALWYRNHWVFGGGTKLTVL
notes: Humanized 12E12
Usually EC50 stands for the concentration that produces a half-maximal response. The term Kd denotes the free concentration of one partner at which half of the binding sites on the other are occupied at equilibrium, for simple one-to-one binding. Low values mean tighter binding, high ones weaker binding. What is called koff is the rate constant with which the complex falls apart. Broadly, the kon is the rate constant with which the complex forms. A high value points to faster complex formation. On to B1, for which the EC50 in assay [1] was 0.0322 µg/mL and 0.216 nM. Besides, in assay [2], binding was characterised by a dissociation constant (Kd) of 5.28 nM, the koff came to 0.00449 s⁻¹ and the kon turned out to be 849000 M⁻¹ s⁻¹. Besides, the EC50 in assay [3] is 0.0096 µg/mL and 0.064 nM.

B2: 12E12-huVH7 + huVL2(P08938) (antibody, V domains shown)
VH: QVQLVQSGAEVKKPGASVKVSCKASGYTITDFYIHWVRQAPGKGLEWMGRVDPEDGNTEYAQKFQGRVTMTTDTSTDTAYMELSSLRSEDTAVYYCSTWDGFSYFDYWGQGTTVTVSS
VL: QAVVTQEPSLTVSPGGTVTLTCRSSTGPVTTNNYANWVQQKPGQAFRGLIGGTNDRAPGVPARFSGSLLGGKAALTLSGAQPEDEAEYYCALWYRNHWVFGGGTKLTVL
notes: Humanized 12E12
As to B2, in assay [1], the concentration for a half-maximal effect (EC50) is 0.0262 µg/mL and 0.176 nM. In addition, in assay [2], the Kd came out at 1.7 nM, the koff came to 0.00183 s⁻¹ and the kon was 1.08e+06 M⁻¹ s⁻¹. Besides, the EC50 in assay [3] is 0.0587 µg/mL and 0.394 nM.

B3: 12E12-huVH8 + huVL2(P08939) (antibody, V domains shown)
VH: EVQLVQSGAEVKKPGATVKISCKVSGYTITDFYIHWVQQAPGKGLEWMGRVDPEDGNTEYAPNFQDRVTITADTSTDTAYMELSSLRSEDTAVYYCSTWDGFSYFDYWGQGTTVTVSS
VL: QAVVTQEPSLTVSPGGTVTLTCRSSTGPVTTNNYANWVQQKPGQAFRGLIGGTNDRAPGVPARFSGSLLGGKAALTLSGAQPEDEAEYYCALWYRNHWVFGGGTKLTVL
notes: Humanized 12E12
Consider B3, for which the EC50 in assay [1] was 0.0284 µg/mL and 0.19 nM. Also, in assay [2], binding was put at a Kd of 3.92 nM, the koff came to 0.00442 s⁻¹ and the kon is 1.13e+06 M⁻¹ s⁻¹. In addition, the EC50 in assay [3] was 0.0158 µg/mL and 0.106 nM.

B4: 12E12-huVH7 + huVL4(P08941) (antibody, V domains shown)
VH: QVQLVQSGAEVKKPGASVKVSCKASGYTITDFYIHWVRQAPGKGLEWMGRVDPEDGNTEYAQKFQGRVTMTTDTSTDTAYMELSSLRSEDTAVYYCSTWDGFSYFDYWGQGTTVTVSS
VL: EAVVTQSPATLSLSPGERATLSCRSSTGPVTTNNYANWVQQKPGQAFRGLIGGTNDRAPGIPARFSGSGSGTDTTLTISSLQPEDFAVYYCALWYRNHWVFGGGTKLEIK
notes: Humanized 12E12
Consider B4, for which the EC50 in assay [1] was 0.0273 µg/mL and 0.183 nM. In assay [2], this molecule yielded a Kd of 2.8 nM, an off-rate constant (koff) of 0.0035 s⁻¹ and a kon of 1.25e+06 M⁻¹ s⁻¹. For the same molecule, the EC50 in assay [3] was 0.0217 µg/mL and 0.145 nM.

B5: 12E12-huVH6 + huVL4(P08940) (antibody, V domains shown)
VH: QVQLVQSGAEVKKPGASVKVSCKASGYTITDFYIHWVRQAPGQGLEWIGRVDPEDGNTEYAPNFQDRATMTTDTSTSTAYLELSSLRSEDTAVYYCSTWDGFSYFDYWGQGTTVTVSS
VL: EAVVTQSPATLSLSPGERATLSCRSSTGPVTTNNYANWVQQKPGQAFRGLIGGTNDRAPGIPARFSGSGSGTDTTLTISSLQPEDFAVYYCALWYRNHWVFGGGTKLEIK
notes: Humanized 12E12
Consider B5, for which, in assay [1], the EC50 is 0.0279 µg/mL and 0.187 nM. Further, in assay [2], the Kd amounted to 4.03 nM, the koff turned out to be 0.0034 s⁻¹ and the kon was 844000 M⁻¹ s⁻¹. Besides, the EC50 in assay [3] is 0.011 µg/mL and 0.073 nM.

B6: 12E12-huVH8 + huVL4(P08942) (antibody, V domains shown)
VH: EVQLVQSGAEVKKPGATVKISCKVSGYTITDFYIHWVQQAPGKGLEWMGRVDPEDGNTEYAPNFQDRVTITADTSTDTAYMELSSLRSEDTAVYYCSTWDGFSYFDYWGQGTTVTVSS
VL: EAVVTQSPATLSLSPGERATLSCRSSTGPVTTNNYANWVQQKPGQAFRGLIGGTNDRAPGIPARFSGSGSGTDTTLTISSLQPEDFAVYYCALWYRNHWVFGGGTKLEIK
notes: Humanized 12E12
On to B6, for which, in assay [1], the EC50 is 0.0353 µg/mL and 0.237 nM. Besides, in assay [2], binding was put at a Kd of 3.25 nM, the koff came out at 0.00437 s⁻¹ and the kon came out at 1.34e+06 M⁻¹ s⁻¹. Further, the EC50 in assay [3] was 0.0129 µg/mL and 0.087 nM.
